From US20150246949A1, “Desmoglein 2 (DSG2) Binding Proteins and Uses Therefor” (UNIVERSITY OF WASHINGTON THROUGH ITS CENTER FOR …, priority 2012, published 2015)
Residue numbers refer to the chain shown, from its start. “Also recorded” adds a separate entry of the source.

B1: JO-1: recombinant protein with the Ad3 fiber knob and a domain for self-dimerization of trimeric knobs (SEQ ID NO:27) (protein)
chain: MKVSALKEKVSALKEKVSALKEKVSALKEKVSALKEGSGGGSGGGSGGGSNSIALKNNTLWTGPKPEANCIIEYGKQNPDSKLTLILVKNGGIVNGYVTLMGASDYVNTLFKNKNVSINVELYFDATGHILPDSSSLKTDLELKYKQTADFSARGFMPSTTAYPFVLPNAGTHNENYIFGQCYYKASDGALFPLEVTVMLNKRLPDSRTSYVMTFLWSLNAGLAPETTQATLITSPFTFSYIREDD
B2: JO-4 (protein)
chain: B1 chain with Y177F

What was measured:
ovc316 xenograft tumors = assay: Enhancement of PLD therapy in ovc316 ovarian cancer xenograft model; type: in vivo, CB17 mice; conditions: weekly
Protocol: (§1) FIG. 10. Combination of affinity-enhanced JO-1 versions with chemotherapy. A) Enhancement of irinotecan (I) therapy. The experimental setting was the same as in FIG. 5B. […] N=5. […] Mammary fat pad tumors were established from primary ovarian cancer ovc316 cells. Treatment was started when tumors reached a volume of 100 mm^3 Mice were injected intravenously with 2 mg/kg JO-1 or with 0.5 mg/kg JO-4, followed by an intravenous injection of PEGylated liposomal doxorubicin (PLD) (1 mg/kg) one hour later. Treatment was repeated weekly. […] A total of 4×10^6 TNBC MDA-MB-231 cells were injected into the mammary fat pad of CB17 SCID-beige mice. JO-4 (2 mg/kg) was intravenously injected 1 hour before the application of cetuximab (C) (10 mg/kg, i.p.) and nab-paclitaxel (nab-P) (5 mg/kg, i.v). Treatment was given weekly. N=10 P<0.01 at day 25 for nab-P+C vs JO-4+nab-P+C.
A549, MDA-MB-231, and ovc316 xenograft tumors were established by injection of the corresponding tumor cells into the mammary fat pad (1:1 with Matrigel) of CB17 mice. TC1-DSG2 tumors were established by subcutaneous injection of TC1-DSG2 cells into DSG2 transgenic mice. […] Tumor volumes were measured three times a week. […]

TC1-hDSG2 tumors = assay: Repeated-cycle PLD therapy study in immunocompetent mice with TC1-hDSG2 tumors; type: in vivo, hDSG2 transgenic mice; conditions: 2 mg/kg i.v. one hour before PLD/Doxil 1.5 mg/kg i.v.; 3rd and 4th cycles days 28 and 35; N=10
Protocol: FIG. 11. Pharmacokinetics, toxicity, and immunogenicity of JO-4. A) Serum clearance of JO-1 and JO-4. hDSG2 transgenic mice with subcutaneous TC1-hDSG2 tumors (˜600 mm^3) were intravenously injected with JO-1 or JO-4 (2 mg/kg) and serum samples were analyzed for by ELISA. N=3. Note that the y-axis has a log scale. B) Lymphocyte and platelet counts in hDSG2/TC1-hDSG2 transgenic mice after JO-1 or JO-4 injection. N=3. C) Therapy studies in immunocompetent hDSG2 transgenic mice with TC1-hDSG2 tumors. When tumors reached a volume of ˜80 mm^3, JO-1 or JO-4 (2 mg/kg) or PBS was injected intravenously followed one hour later by PLD/Doxil (i.v. 1.5 mg/kg). Treatment was repeated as indicated by arrows. Tumors were then allowed to re-grow for about two weeks. From day 15 on serum anti-JO-1/J)-4 antibodies were detectable by ELISA. Two more treatment cycles were performed at day 28 and day 35. […] The difference between JO-1/PLD vs JO-4/PLD is significant from day 31 on. N=10.
A549, MDA-MB-231, and ovc316 xenograft tumors were established by injection of the corresponding tumor cells into the mammary fat pad (1:1 with Matrigel) of CB17 mice. […] Tumor volumes were measured three times a week. […]
JO-1 and JO-4 are virus-derived proteins and immunogenic. In immunocompetent mice, serum IgG antibodies against these proteins can be detected by ELISA two weeks after injection (5). […]

A549 xenograft tumors = assay: Enhancement of irinotecan therapy in A549 xenograft tumors; type: in vivo, CB17-SCID/beige mice; conditions: 2 mg/kg i.v. one hour before irinotecan 37.5 mg/kg i.v.; days 15 and 25; N=5
Protocol: FIG. 5. Correlation of reduced DSG2 binding with the ability to open epithelial junctions. A) Transepithelial electrical resistance (TEER) measured on polarized colon cancer T84 cells. Cells were cultured in transwell chambers until the TEER was constant, i.e. tight junctions had formed. A total of 5 μg of dimeric Ad3 fiber knobs in PBS was then added for 1 hour to the apical chamber. TEER was measured at the indicated time points. N=6. For time points 1.5 and 4 hours the difference between JO-1 vs D261N and N186D was significant (p<0.01). The arrows indicate the addition and removal of Ad3 fiber knobs. B) Enhancement of irinotecan therapy. A total of 4×10^6 A549 cells were injected subcutaneously into CB17-SCID/beige mice. Once the tumor reached a volume of ˜100 mm^3 (day 15 after implantation), the mice were injected intravenously with 2 mg/kg JO-1, E299V, N186D, or PBS, followed by an intravenous injection of irinotecan (37.5 mg/kg) one hour later. The treatment was repeated on day 25. N=5. […] The difference between “irinotecan” vs “JO-1+irinotecan” was significant (p<0.01) from day 20 on.
as §1
A549, MDA-MB-231, and ovc316 xenograft tumors were established by injection of the corresponding tumor cells into the mammary fat pad (1:1 with Matrigel) of CB17 mice. TC1-DSG2 tumors were established by subcutaneous injection of TC1-DSG2 cells into DSG2 transgenic mice. JO-0, JO-1, JO-2, or JO-4 were intravenously injected one hour before the application of chemotherapeutic drugs: Irinotecan/Camptosar™ (Pfizer Inc., Groton, Conn.), PEGylated liposomal doxorubicin/Lipodox™ (Sun Pharmaceuticals IN, India), cetuximab/Erbitux™ (ImClone, Somerville, N.J.), nanoparticle albumin conjugated paclitaxel/Abraxane™ (Abraxis Biosciences, Summit N.J.). Tumor volumes were measured three times a week. Each treatment group consisted of a minimum of 5 mice.

Row | Molecule | Enhancement of PLD therapy (ovc316 xenograft tumors; 2 mg/kg i.v. one hour before PLD 1 mg/kg i.v.) | Enhancing effect on PLD therapy over repeated treatment cycles (TC1-hDSG2 tumors) | Enhancement of irinotecan therapy (A549 xenograft tumors) | Enhancement of PLD therapy (ovc316 xenograft tumors; 0.5 mg/kg i.v. one hour before PLD 1 mg/kg i.v.)
1 | B1 | significantly increased the treatment efficiency | enhancing effect on PLD therapy; also recorded: continued to be effective after multiple treatment cycles | enhanced irinotecan therapy; also recorded: significant | 
2 | B2 |  | enhancing effect on PLD therapy; also recorded: significantly stronger; also recorded: continued to be effective after multiple treatment cycles | increased irinotecan therapy significantly more than JO-1; also recorded: significantly more efficient than JO-2; also recorded: significant from day 20 on | even greater stimulating effect on PLD therapy; also recorded: enhances PLD therapy in an ovarian cancer model at lower dose than JO-1
